Assay results: PMC6563103 (Hepatology (Baltimore, Md.), 2019)

Target: T1, glutathione S-transferase (GST)-CGI-58 (UniProt Q8WTS1 1-349)
T1 sequence (looked up): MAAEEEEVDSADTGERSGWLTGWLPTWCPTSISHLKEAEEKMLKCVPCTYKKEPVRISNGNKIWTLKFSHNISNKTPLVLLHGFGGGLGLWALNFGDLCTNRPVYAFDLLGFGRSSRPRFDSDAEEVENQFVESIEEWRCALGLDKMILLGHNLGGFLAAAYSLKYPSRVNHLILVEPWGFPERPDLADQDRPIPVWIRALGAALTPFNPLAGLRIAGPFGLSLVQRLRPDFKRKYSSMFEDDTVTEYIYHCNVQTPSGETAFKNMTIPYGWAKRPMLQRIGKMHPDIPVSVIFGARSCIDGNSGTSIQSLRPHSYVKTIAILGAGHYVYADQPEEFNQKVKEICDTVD
Experiment: pull-down

B1: recombinant PNPLA3(148M), deca-histidine and Flag fusion protein (enzyme, UniProt Q9NST1 1-481, looked up)
chain: MYDAERGWSLSFAGCGFLGFYHVGATRCLSEHAPHLLRDARMLFGASAGALHCVGVLSGIPLEQTLQVLSDLVRKARSRNIGIFHPSFNLSKFLRQGLCKCLPANVHQLISGKIGISLTRVSDGENVLVSDFRSKDEVVDALVCSCFMPFYSGLIPPSFRGVRYVDGGVSDNVPFIDAKTTITVSPFYGEYDICPKVKSTNFLHVDITKLSLRLCTGNLYLLSRAFVPPDLKVLGEICLRGYLDAFRFLEEKGICNRPQPGLKSSSEGMDPEVAMPSWANMSLDSSPESAALAVRLEGDELLDHLRLSILPWDESILDTLSPRLATALSEEMKDKGGYMSKICNLLPIRIMSYVMLPCTLPVESAIAIVQRLVTWLPDMPDDVLWLQWVTSQVFTRVLMCLLPASRSQMPVSSQQASPCTPEQDWPCWTPCSPKGCPAETKAEATPRSILRSSLNFFLGNKVPAGAEGLSTFPSFSLEKSL
molar ratio of PNPLA3 to CGI-58 in the precipitates: ~0.14 mol PNPLA3 per mol CGI-58
